Measured values: article PMC9482650, “Quantitative fragmentomics allow affinity mapping of interactomes” (Nature Communications, 2022)

T1: DLG3_2, Q92796
T1 sequence (Q92796 221-321, limits assumed, looked up): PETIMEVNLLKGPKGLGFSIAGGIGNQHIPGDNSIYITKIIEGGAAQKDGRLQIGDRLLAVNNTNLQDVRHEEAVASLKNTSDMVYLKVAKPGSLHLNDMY

T2: SYNJ2BP, P57105
T2 sequence (P57105 8-110, limits assumed, looked up): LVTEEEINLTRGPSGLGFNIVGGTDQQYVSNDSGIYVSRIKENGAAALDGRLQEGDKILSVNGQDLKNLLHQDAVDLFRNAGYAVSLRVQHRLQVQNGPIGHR

T3: APBA1_1, Q02410
T3 sequence (Q02410 651-752, limits assumed, looked up): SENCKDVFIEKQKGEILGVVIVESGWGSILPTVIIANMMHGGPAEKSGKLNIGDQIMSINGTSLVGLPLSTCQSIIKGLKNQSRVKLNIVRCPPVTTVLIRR

T4: LNX2_2, Q8N448
T4 sequence (Q8N448 334-432, limits assumed, looked up): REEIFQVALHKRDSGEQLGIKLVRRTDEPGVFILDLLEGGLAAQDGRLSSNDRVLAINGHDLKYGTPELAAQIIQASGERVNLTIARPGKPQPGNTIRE

T5: APBA1_2, Q02410
T5 sequence (Q02410 742-832, limits assumed, looked up): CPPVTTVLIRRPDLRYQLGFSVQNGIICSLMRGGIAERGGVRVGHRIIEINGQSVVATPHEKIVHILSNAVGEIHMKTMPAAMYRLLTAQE

T6: RHPN1, Q8TCX5
T6 sequence (Q8TCX5 508-602, limits assumed, looked up): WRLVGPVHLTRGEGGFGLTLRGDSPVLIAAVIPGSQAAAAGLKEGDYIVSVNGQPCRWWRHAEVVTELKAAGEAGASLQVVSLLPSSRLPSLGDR

T7: NHERF3_1, Q5T2W1
T7 sequence (Q5T2W1 4-100, limits assumed, looked up): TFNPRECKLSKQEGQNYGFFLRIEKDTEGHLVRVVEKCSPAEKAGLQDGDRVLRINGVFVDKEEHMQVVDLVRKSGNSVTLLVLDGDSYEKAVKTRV

T8: APBA2_1, Q99767
T8 sequence (Q99767 563-664, limits assumed, looked up): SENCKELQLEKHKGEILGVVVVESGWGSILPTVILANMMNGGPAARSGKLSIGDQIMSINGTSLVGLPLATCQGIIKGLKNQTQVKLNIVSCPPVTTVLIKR

T9: NHERF3_3, Q5T2W1
T9 sequence (Q5T2W1 238-333, limits assumed, looked up): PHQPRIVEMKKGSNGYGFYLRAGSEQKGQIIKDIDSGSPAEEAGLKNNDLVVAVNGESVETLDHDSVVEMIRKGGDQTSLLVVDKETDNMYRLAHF

T10: MPP2, Q14168
T10 sequence (Q14168 180-250, limits assumed, looked up): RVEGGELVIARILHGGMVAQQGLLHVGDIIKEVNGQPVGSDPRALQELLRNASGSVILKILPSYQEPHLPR

T11: GRIP1_5, Q9Y3R0
T11 sequence (Q9Y3R0 568-668, limits assumed, looked up): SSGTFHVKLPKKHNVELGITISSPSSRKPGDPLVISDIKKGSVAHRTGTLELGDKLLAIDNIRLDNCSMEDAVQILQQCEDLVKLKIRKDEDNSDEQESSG

T12: GRIP1_3, Q9Y3R0
T12 sequence (Q9Y3R0 247-346, limits assumed, looked up): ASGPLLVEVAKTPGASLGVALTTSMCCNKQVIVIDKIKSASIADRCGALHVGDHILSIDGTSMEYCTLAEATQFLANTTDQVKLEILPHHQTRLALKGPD

B1: TYRP1, P17643 (peptide)
chain: KLQNPNQSVV
B2: CCL24, O00175 (peptide)
chain: QRYPGNQTTC

Target: DLG4_2, P78352
Assay: holdup assay
Design: key: below the threshold = too weak to quantify, mostly under pKd 3.1 to 4
Conditions: plain residues with an end cap or a label only (N-terminal biotin on a linker: ado-ado)

Sequence of DLG4_2, P78352 (P78352 155-259): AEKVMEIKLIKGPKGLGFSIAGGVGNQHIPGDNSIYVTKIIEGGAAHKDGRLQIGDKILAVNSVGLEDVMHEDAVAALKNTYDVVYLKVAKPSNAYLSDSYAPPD

Binder	pKd
B1	4.11
B2	3.64

Target: Inadl_8, Q8NI35
Assay: holdup assay
Design: key: below the threshold = too weak to quantify, mostly under pKd 3.1 to 4
Conditions: plain residues with an end cap or a label only (N-terminal biotin on a linker: ado-ado)

Sequence of Inadl_8, Q8NI35 (Q8NI35 1425-1530): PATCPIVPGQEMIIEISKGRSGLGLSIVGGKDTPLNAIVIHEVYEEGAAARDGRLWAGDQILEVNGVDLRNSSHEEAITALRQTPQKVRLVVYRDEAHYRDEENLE

Binder	pKd
B1	3.97
B2	below the threshold

Target: DLG2_3, Q15700
Assay: holdup assay
Design: key: below the threshold = too weak to quantify, mostly under pKd 3.1 to 4
Conditions: plain residues with an end cap or a label only (N-terminal biotin on a linker: ado-ado)

Binder	pKd
B1	below the threshold
B2	3.87

Target: T1, DLG3_2, Q92796
Assay: holdup assay
Design: key: below the threshold = too weak to quantify, mostly under pKd 3.1 to 4
Conditions: plain residues with an end cap or a label only (N-terminal biotin on a linker: ado-ado)

Binder	pKd
B1	3.86
B2	4.26

Target: PICK1, Q9NRD5
Assay: holdup assay
Design: key: below the threshold = too weak to quantify, mostly under pKd 3.1 to 4
Conditions: plain residues with an end cap or a label only (N-terminal biotin on a linker: ado-ado)

Sequence of PICK1, Q9NRD5 (Q9NRD5 17-115): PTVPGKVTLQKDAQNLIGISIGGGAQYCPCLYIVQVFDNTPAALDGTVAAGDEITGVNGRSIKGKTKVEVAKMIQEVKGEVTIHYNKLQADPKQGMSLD

Binder	pKd
B1	4.19
B2	below the threshold

Target: T2, SYNJ2BP, P57105
Assay: holdup assay
Design: key: below the threshold = too weak to quantify, mostly under pKd 3.1 to 4
Conditions: plain residues with an end cap or a label only (N-terminal biotin on a linker: ado-ado)

Binder	pKd
B1	3.91
B2	below the threshold

Target: GRID2IP_2, A4D2P6
Assay: holdup assay
Design: key: below the threshold = too weak to quantify, mostly under pKd 3.1 to 4
Conditions: plain residues with an end cap or a label only (N-terminal biotin on a linker: ado-ado)

Sequence of GRID2IP_2, A4D2P6 (A4D2P6 272-370): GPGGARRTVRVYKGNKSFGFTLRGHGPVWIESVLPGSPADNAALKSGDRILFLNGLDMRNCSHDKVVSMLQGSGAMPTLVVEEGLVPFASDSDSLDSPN

Binder	pKd
B1	3.63
B2	4.08

Target: T3, APBA1_1, Q02410
Assay: holdup assay
Design: key: below the threshold = too weak to quantify, mostly under pKd 3.1 to 4
Conditions: plain residues with an end cap or a label only (N-terminal biotin on a linker: ado-ado)

Binder	pKd
B1	below the threshold
B2	below the threshold

Target: GRIP2_5, Q9C0E4
Assay: holdup assay
Design: key: below the threshold = too weak to quantify, mostly under pKd 3.1 to 4
Conditions: plain residues with an end cap or a label only (N-terminal biotin on a linker: ado-ado)

Sequence of GRIP2_5, Q9C0E4 (Q9C0E4 544-642): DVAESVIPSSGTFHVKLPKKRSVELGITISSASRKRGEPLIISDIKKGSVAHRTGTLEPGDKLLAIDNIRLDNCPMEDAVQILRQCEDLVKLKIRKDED

Binder	pKd
B1	below the threshold
B2	below the threshold

Target: T4, LNX2_2, Q8N448
Assay: holdup assay
Design: key: below the threshold = too weak to quantify, mostly under pKd 3.1 to 4
Conditions: plain residues with an end cap or a label only (N-terminal biotin on a linker: ado-ado)

Binder	pKd
B1	4.32
B2	3.58

Target: MAGI1_1, Q96QZ7
Assay: holdup assay
Design: key: below the threshold = too weak to quantify, mostly under pKd 3.1 to 4
Conditions: plain residues with an end cap or a label only (N-terminal biotin on a linker: ado-ado)

Sequence of MAGI1_1, Q96QZ7 (Q96QZ7 1-106): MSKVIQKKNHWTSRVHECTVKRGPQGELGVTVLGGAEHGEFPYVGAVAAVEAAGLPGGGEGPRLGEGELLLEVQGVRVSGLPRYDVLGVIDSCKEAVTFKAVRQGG

Binder	pKd
B1	below the threshold
B2	below the threshold

Target: T5, APBA1_2, Q02410
Assay: holdup assay
Design: key: below the threshold = too weak to quantify, mostly under pKd 3.1 to 4
Conditions: plain residues with an end cap or a label only (N-terminal biotin on a linker: ado-ado)

Binder	pKd
B1	3.56
B2	below the threshold

Target: T6, RHPN1, Q8TCX5
Assay: holdup assay
Design: key: below the threshold = too weak to quantify, mostly under pKd 3.1 to 4
Conditions: plain residues with an end cap or a label only (N-terminal biotin on a linker: ado-ado)

Binder	pKd
B1	3.77
B2	4.2

Target: FRMPD3, Q5JV73
Assay: holdup assay
Design: key: below the threshold = too weak to quantify, mostly under pKd 3.1 to 4
Conditions: plain residues with an end cap or a label only (N-terminal biotin on a linker: ado-ado)

Sequence of FRMPD3, Q5JV73 (Q5JV73 12-100): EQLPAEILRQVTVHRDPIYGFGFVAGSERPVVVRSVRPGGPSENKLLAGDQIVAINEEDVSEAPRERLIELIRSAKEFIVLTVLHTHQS

Binder	pKd
B1	below the threshold
B2	below the threshold

Target: T7, NHERF3_1, Q5T2W1
Assay: holdup assay
Design: key: below the threshold = too weak to quantify, mostly under pKd 3.1 to 4
Conditions: plain residues with an end cap or a label only (N-terminal biotin on a linker: ado-ado)

Binder	pKd
B1	below the threshold
B2	below the threshold

Target: DLG4_1, P78352
Assay: holdup assay
Design: key: below the threshold = too weak to quantify, mostly under pKd 3.1 to 4
Conditions: plain residues with an end cap or a label only (N-terminal biotin on a linker: ado-ado)

Sequence of DLG4_1, P78352 (P78352 62-152): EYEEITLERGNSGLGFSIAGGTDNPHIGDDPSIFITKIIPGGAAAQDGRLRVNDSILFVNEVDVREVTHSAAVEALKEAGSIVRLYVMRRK

Binder	pKd
B1	3.91
B2	below the threshold

Target: T8, APBA2_1, Q99767
Assay: holdup assay
Design: key: below the threshold = too weak to quantify, mostly under pKd 3.1 to 4
Conditions: plain residues with an end cap or a label only (N-terminal biotin on a linker: ado-ado)

Binder	pKd
B1	below the threshold
B2	below the threshold

Target: IL16_3, Q14005
Assay: holdup assay
Design: key: below the threshold = too weak to quantify, mostly under pKd 3.1 to 4
Conditions: plain residues with an end cap or a label only (N-terminal biotin on a linker: ado-ado)

Sequence of IL16_3, Q14005 (Q14005 1107-1207): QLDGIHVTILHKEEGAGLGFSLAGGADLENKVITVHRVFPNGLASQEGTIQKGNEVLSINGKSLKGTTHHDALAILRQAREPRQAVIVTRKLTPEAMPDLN

Binder	pKd
B1	below the threshold
B2	below the threshold

Target: T9, NHERF3_3, Q5T2W1
Assay: holdup assay
Design: key: below the threshold = too weak to quantify, mostly under pKd 3.1 to 4
Conditions: plain residues with an end cap or a label only (N-terminal biotin on a linker: ado-ado)

Binder	pKd
B1	below the threshold
B2	below the threshold

Target: PDLIM1, O00151
Assay: holdup assay
Design: key: below the threshold = too weak to quantify, mostly under pKd 3.1 to 4
Conditions: plain residues with an end cap or a label only (N-terminal biotin on a linker: ado-ado)

Sequence of PDLIM1, O00151 (O00151 1-87): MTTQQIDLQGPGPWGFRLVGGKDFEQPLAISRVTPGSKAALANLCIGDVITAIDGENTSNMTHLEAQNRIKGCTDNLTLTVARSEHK

Binder	pKd
B1	below the threshold
B2	below the threshold

Target: NOS1, P29475
Assay: holdup assay
Design: key: below the threshold = too weak to quantify, mostly under pKd 3.1 to 4
Conditions: plain residues with an end cap or a label only (N-terminal biotin on a linker: ado-ado)

Sequence of NOS1, P29475 (P29475 9-101): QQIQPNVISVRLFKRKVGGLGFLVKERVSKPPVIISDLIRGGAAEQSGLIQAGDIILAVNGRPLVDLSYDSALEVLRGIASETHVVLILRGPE

Binder	pKd
B1	below the threshold
B2	below the threshold

Target: GRIP2_4, Q9C0E4
Assay: holdup assay
Design: key: below the threshold = too weak to quantify, mostly under pKd 3.1 to 4
Conditions: plain residues with an end cap or a label only (N-terminal biotin on a linker: ado-ado)

Sequence of GRIP2_4, Q9C0E4 (Q9C0E4 446-548): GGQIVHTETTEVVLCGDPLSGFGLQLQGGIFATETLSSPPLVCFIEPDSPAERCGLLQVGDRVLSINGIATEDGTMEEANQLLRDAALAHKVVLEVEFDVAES

Binder	pKd
B1	below the threshold
B2	below the threshold

Target: HTRA1, Q92743
Assay: holdup assay
Design: key: below the threshold = too weak to quantify, mostly under pKd 3.1 to 4
Conditions: plain residues with an end cap or a label only (N-terminal biotin on a linker: ado-ado)

Sequence of HTRA1, Q92743 (Q92743 360-477): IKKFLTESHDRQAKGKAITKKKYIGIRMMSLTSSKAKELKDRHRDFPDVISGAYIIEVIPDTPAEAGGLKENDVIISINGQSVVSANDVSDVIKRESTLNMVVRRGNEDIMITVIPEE

Binder	pKd
B1	4.11
B2	3.66

Target: T10, MPP2, Q14168
Assay: holdup assay
Design: key: below the threshold = too weak to quantify, mostly under pKd 3.1 to 4
Conditions: plain residues with an end cap or a label only (N-terminal biotin on a linker: ado-ado)

Binder	pKd
B1	below the threshold
B2	below the threshold

Target: T11, GRIP1_5, Q9Y3R0
Assay: holdup assay
Design: key: below the threshold = too weak to quantify, mostly under pKd 3.1 to 4
Conditions: plain residues with an end cap or a label only (N-terminal biotin on a linker: ado-ado)

Binder	pKd
B1	below the threshold
B2	below the threshold

Target: T12, GRIP1_3, Q9Y3R0
Assay: holdup assay
Design: key: below the threshold = too weak to quantify, mostly under pKd 3.1 to 4
Conditions: plain residues with an end cap or a label only (N-terminal biotin on a linker: ado-ado)

Binder	pKd
B1	below the threshold
B2	below the threshold
